Key:
[1] = biological target: T1, GST alone control protein (UniProt P08515 1-218 = GST); assay: SPR (Biacore J), control injected over SAA on CM5 chip
T1 construct: Negative control; also called GST control protein; control GST alone protein
Protocol: (§1) The 96% pure SAA was covalently bound to the biospecific sensor surface of the Biacore J (biacore, Sweden). This surface consists of a gold-coated glass slide mounted in a plastic holder (the sensor chip). The CM5 chip (biacore, Sweden) was used for all experiments and this chip is covered with a hydrophilic matrix, consisting of carboxymethylated dextran to which the SAA was covalently bound. The tanis protein fragments were injected into the system and flowed across this chip and sensorgrams were recorded in real-time.
(§2) The interaction of the proteins is indicated by the failure of the response to return to the baseline RU value. The difference between the values post injection (points 1, 3, 5, 7) indicates a binding event between full length tanis and SAA. The difference between the injection point and the max RU indicates the affinity between the two proteins. […] These sensorgrams indicate a potentially high affinity binding with a rapid dissociation of the binding event. A series of controls have also been injected across the SAA chip, these were GST alone, BSA (NEB, USA) alone and buffer alone.

[2] = biological target: T2, BSA (NEB, USA) (UniProt P02769 25-607); assay: as above
T2 construct: Negative control
T2 sequence (P02769 25-607 limits assumed): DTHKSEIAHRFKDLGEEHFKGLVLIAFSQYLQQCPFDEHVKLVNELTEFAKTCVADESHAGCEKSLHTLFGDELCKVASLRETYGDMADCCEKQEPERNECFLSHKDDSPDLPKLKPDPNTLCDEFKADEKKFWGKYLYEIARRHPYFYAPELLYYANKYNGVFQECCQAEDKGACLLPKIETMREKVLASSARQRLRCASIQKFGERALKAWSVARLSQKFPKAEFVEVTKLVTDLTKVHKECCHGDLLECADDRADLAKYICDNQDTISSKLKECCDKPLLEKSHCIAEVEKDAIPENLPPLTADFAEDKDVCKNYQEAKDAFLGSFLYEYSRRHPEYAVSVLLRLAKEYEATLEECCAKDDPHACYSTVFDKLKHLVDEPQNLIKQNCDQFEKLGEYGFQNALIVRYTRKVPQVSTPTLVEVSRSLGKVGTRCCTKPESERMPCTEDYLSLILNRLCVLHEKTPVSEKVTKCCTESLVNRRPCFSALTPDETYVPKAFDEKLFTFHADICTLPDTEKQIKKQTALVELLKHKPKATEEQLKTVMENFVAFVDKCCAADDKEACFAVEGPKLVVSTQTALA
Protocol: as §1, §2

T1 sequence (P08515 whole entry): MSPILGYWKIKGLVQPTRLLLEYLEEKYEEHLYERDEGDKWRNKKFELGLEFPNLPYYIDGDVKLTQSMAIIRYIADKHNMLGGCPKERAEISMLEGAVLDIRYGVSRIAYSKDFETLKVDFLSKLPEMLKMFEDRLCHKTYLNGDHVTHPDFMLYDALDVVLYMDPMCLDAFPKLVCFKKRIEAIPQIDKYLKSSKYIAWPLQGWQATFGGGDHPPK

- binding result [1]: no binding
- binding result [2]: no binding
B1: Serum amyloid A (SAA) purified from human sera / human plasma (Trace Scientific) (ligand, UniProt P0DJI8 19-122, looked up)
chain: RSFFSFLGEAFDGARDMWRAYSDMREANYIGSDKYFHARGNYDAAKRGPGGAWAAEVITDARENIQRFFGHGAEDSLADQAANEWGRSGKDPNHFRPAGLPEKY
notes: also called human plasma SAA

Reference: patent publication US20040248767A1 (AUTOGEN RESEARCH, published 2004)
